{
  "source": "patent US20090180995A1",
  "about": "“NOVEL ANTICOAGULANT POLYPEPTIDES AND COMPLEX” (National University of Singapore, priority 2005, published 2009)",
  "key": {"FVIIa": {"biological_target": "T1, FVIIa (Homo sapiens, UniProt P08709)", "T1 construct": "from tissue; host or cells: human plasma", "T1 sequence (P08709 61-212 limits assumed)": "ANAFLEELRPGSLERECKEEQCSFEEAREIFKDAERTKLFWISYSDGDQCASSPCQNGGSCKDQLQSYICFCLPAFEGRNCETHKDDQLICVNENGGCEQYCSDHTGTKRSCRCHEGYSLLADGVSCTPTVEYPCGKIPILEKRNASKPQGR", "T1 sequence (P08709 213-466 limits assumed)": "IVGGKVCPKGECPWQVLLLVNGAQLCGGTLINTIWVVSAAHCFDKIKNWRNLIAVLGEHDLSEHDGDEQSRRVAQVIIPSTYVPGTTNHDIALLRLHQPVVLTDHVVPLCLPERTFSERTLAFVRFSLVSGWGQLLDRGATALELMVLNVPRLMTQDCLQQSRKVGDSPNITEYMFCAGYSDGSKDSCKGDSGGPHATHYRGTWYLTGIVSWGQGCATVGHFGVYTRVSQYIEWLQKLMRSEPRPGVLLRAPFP", "assay": "ITC, binding of hemextin AB complex to FVIIa", "settings": "37° C.", "method": "Isothermal titration calorimetry (ITC) studies—The interaction of anticoagulant hemextin AB complex with FVIIa was monitored with a VP-ITC titration calorimetric system (Microcal Inc., Northampton, Mass.). The instrument was calibrated using the built-in electrical calibration check. FVIIa (10 μM) in 50 mM Tris-HCl buffer and 10 mM CaCl2 (pH 7.4) in the calorimetric cell was titrated with reconstituted anticoagulant complex (0.2 mM) dissolved in the same buffer in a 250 μl injection syringe, with continual stirring at 300 rpm at 37° C. All the protein solutions were filtered and degassed prior to titration. […] The total heat content Q of the solution (determined relative to zero for the unliganded species) contained in the active cell volume, Vo, was calculated according to the following Equation 2, where K is the binding affinity constant, n is the number of sites, ΔH is the enthalpy of ligand binding, Mt and Xt is the bulk concentration of macromolecule and ligand, respectively, for the binding X+M ? […]\nThe change in heat (ΔQ) measured between the completions of two consecutive injections is corrected for dilution of the protein and ligand in the cell according to standard Marquardt methods. The free energy change (AG) during the interaction was calculated by using the relationship: ΔG=ΔH−TΔS=[…], where T is the absolute temperature and R is the universal gas constant."}, "FVIIa-sTF": {"biological_target": "T2, FVIIa-sTF (Homo sapiens, UniProt P08709)", "T2 construct": "made in house; host or cells: Saccharomyces cerevisiae (sTF); human plasma (FVIIa)", "T2 sequence (P13726 33-251 partner limits assumed, one chain of several)": "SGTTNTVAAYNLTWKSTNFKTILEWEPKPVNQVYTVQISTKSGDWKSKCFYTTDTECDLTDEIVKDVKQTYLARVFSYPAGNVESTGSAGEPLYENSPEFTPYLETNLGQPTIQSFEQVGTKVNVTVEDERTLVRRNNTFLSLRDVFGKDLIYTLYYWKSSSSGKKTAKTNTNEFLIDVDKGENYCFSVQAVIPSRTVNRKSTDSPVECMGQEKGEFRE", "assay": "Kinetics of inhibition of FVIIa-sTF amidolytic activity on S-2288", "type": "biochemical", "method": "Determination of kinetic constants for substrate hydrolysis—All studies were in assay buffer containing 50 mM Tris-HCl, pH 8.0, containing 150 mM NaCl, 10 mM CaCl2, and 1% BSA at 37° C. The kinetics of hydrolysis of the chromogenic substrate S-2288 by FVIIa-sTF was measured prior to examining the inhibitory effects of individual hemextins and the hemextin AB complex. Reactions were initiated by the addition of S-2288 (0-5 mM) to the individual wells of a 96-well plate containing FVIIa (30 nM) in complex with sTF (100 nM) in a final volume of 180 μl. Initial reaction velocities were measured as a linear increase in the absorbance at 405 nm (A405 nm) over 5 min, with a SPECTRAmax Plus® temperature-controlled microplate spectrophotometer (Molecular Devices, Sunnyvale, Calif.). The Km was derived from the nonlinear regression fit of the determined velocities, the value of which was 2.79 mM.\nKinetics of inhibition—The inhibitory potency of anticoagulant complex was measured over a range of substrate concentrations. Reactions were initiated by the addition of S-2288 to premixed enzyme-cofactor and inhibitor in the wells of a microtiter plate. Reactions with FVIIa-sTF contained 0.0125-0.05 μM of inhibitor complex and 0 to 3 mM of S-2288.\nV=Vmax [S]/(1+[I]Ki)/{Km+[S]} (Eq. 1)"}},
  "note": "Entries after “also recorded” stand apart in the source; their conditions may differ.",
  "data": [
    {"molecule": "hemextin AB complex: synergistic 1:1 tetrameric complex of hemextin A and hemextin B, reconstituted from equimolar proteins (protein) chain 1: LKCKNKLVPFLSKTCPEGKNLCYKMTMLKMPKIPIKRGCTDACPKSSLLVKVVCCNKDKCN chain 2: LKCKNKVVPFLKCKNKVVPFLCYKMTLKKVPKIPIKRGCTDACPKSSLLVNVMCCKTDKCN", "values": [
      {"measurement": "ΔG of binding to FVIIa", "setting": "FVIIa", "value": -7.543, "unit": "kcal/M"},
      {"measurement": "K for the binding to FVIIa", "setting": "FVIIa; 50 mM Tris-HCl, 10 mM CaCl2 (pH 7.4)", "value": 411000, "unit": "M⁻¹"},
      {"measurement": "nature of inhibition of FVIIa-sTF activity", "setting": "FVIIa-sTF; S-2288, Lineweaver-Burk plots", "value": "non-competitively; also recorded: non-competitive inhibitor"},
      {"measurement": "Ki", "setting": "FVIIa-sTF; S-2288, secondary plot", "value": 25, "unit": "nM"},
      {"measurement": "Kcat", "setting": "FVIIa-sTF; [Inhibitor] 0.0125 μM", "value": 40.93, "unit": "s⁻¹"},
      {"measurement": "Vmax", "setting": "FVIIa-sTF; [Inhibitor] 0.0125 μM", "value": "7.37E−05"},
      {"measurement": "Kcat", "setting": "FVIIa-sTF; [Inhibitor] 0.0250 μM", "value": 30.58, "unit": "s⁻¹"},
      {"measurement": "Vmax", "setting": "FVIIa-sTF; [Inhibitor] 0.0250 μM", "value": "5.51E−05"},
      {"measurement": "Kcat", "setting": "FVIIa-sTF; [Inhibitor] 0.05 μM", "value": 20.87, "unit": "s⁻¹"},
      {"measurement": "Vmax", "setting": "FVIIa-sTF; [Inhibitor] 0.05 μM", "value": "3.75E−05"}
    ]}
  ]
}
